Test results taken from patent US20170081406A1.

The substances below were run against Human FcRn with human β2M on MDCK II clone 15 cells (human) (UniProt P55899) (assay: cell-based or functional assay).
Chain of Human FcRn with human β2M on MDCK II clone 15 cells (human) (P55899 24-365, chain 1 of 2): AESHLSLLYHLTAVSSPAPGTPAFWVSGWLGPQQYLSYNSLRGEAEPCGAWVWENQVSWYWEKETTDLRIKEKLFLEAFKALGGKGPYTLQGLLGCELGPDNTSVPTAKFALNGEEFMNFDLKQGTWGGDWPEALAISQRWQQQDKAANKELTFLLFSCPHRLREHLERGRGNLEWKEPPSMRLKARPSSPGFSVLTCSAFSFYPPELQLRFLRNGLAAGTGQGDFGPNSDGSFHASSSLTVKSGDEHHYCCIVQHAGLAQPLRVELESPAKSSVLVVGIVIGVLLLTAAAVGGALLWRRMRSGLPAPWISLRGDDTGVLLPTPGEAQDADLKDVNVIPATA
Chain of Human FcRn with human β2M on MDCK II clone 15 cells (human) (P61769 21-119, chain 2 of 2, further chain): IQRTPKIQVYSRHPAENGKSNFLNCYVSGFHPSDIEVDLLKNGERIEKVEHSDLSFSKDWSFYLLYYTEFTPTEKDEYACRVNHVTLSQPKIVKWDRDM

Q: Which Blockade of IgG intracellular uptake EC50 does the source give for “IgG1 IgM tail-piece, Wild-type (Fc-multimer) (Fc fusion)” here?
A: Its Blockade of IgG intracellular uptake EC50 is 4.4 µg/mL.

Q: What about the Blockade of IgG recycling EC50 of the same substance?
A: The Blockade of IgG recycling EC50 was 0.33 µg/mL.

Q: For “IgG1 IgM tail-piece, H310L (Fc-multimer) (Fc fusion)”, which Blockade of IgG recycling (% inhibition at 100 µg/ml) is on record?
A: Its Blockade of IgG recycling (% inhibition at 100 µg/ml) is 45.

Q: What does the source list for “IgG4 IgM tail-piece, V308P (Fc-multimer) (Fc fusion)”?
A: Blockade of IgG intracellular uptake EC50: 0.51 µg/mL; Blockade of IgG recycling EC50: 0.42 µg/mL

Q: “IgG4 IgM tail-piece, T307A (Fc-multimer) (Fc fusion)” was tested. Which Blockade of IgG intracellular uptake EC50 did it give?
A: Its Blockade of IgG intracellular uptake EC50 is 0.5 µg/mL.

Q: With “IgG1 IgM tail-piece, V308F (Fc-multimer) (Fc fusion)” as the substance, how does the Blockade of IgG intracellular uptake EC50 read?
A: Its Blockade of IgG intracellular uptake EC50 is 0.12 µg/mL.

Q: What about the Blockade of IgG recycling EC50 of the same substance?
A: Its Blockade of IgG recycling EC50 is 0.073 µg/mL.

Q: What does the source list for “IgG4 IgM tail-piece, V308F (Fc-multimer) (Fc fusion)”?
A: Blockade of IgG intracellular uptake EC50: 0.42 µg/mL; Blockade of IgG recycling EC50: 0.56 µg/mL

Q: Which results are given for “IgG4 IgM tail-piece, Wild-type (Fc-multimer) (Fc fusion)”?
A: Blockade of IgG intracellular uptake EC50: 5.9 µg/mL; Blockade of IgG recycling EC50: 1 µg/mL

Q: With “IgG1 IgM tail-piece, V308P (Fc-multimer) (Fc fusion)” as the substance, how does the Blockade of IgG intracellular uptake EC50 read?
A: Its Blockade of IgG intracellular uptake EC50 is 0.34 µg/mL.

Q: What about the Blockade of IgG recycling EC50 of the same substance?
A: The Blockade of IgG recycling EC50 was 0.55 µg/mL.

Q: With “IgG1 IgM tail-piece, T307A (Fc-multimer) (Fc fusion)” as the substance, how does the Blockade of IgG intracellular uptake EC50 read?
A: The Blockade of IgG intracellular uptake EC50 was 0.54 µg/mL.

Q: What about the Blockade of IgG recycling EC50 of the same substance?
A: The Blockade of IgG recycling EC50 was 0.35 µg/mL.

Each substance was assayed against Human FcRn with human β2M on MDCK II clone 15 cells (human) (UniProt P55899) (assay: not given).

Q: With “IgG1 Fc IgM tp L309 (wild type IgG1 Fc-multimer) (from UniProt P0DOX5 228-449) (Fc fusion)” as the substance, how does the EC50, inhibition of FcRn mediated IgG recycling (cell lysates), MDCK II clone 15 cells, biotinylated human IgG, MSD detection read?
A: Its EC50, inhibition of FcRn mediated IgG recycling (cell lysates), MDCK II clone 15 cells, biotinylated human IgG, MSD detection is 0.37 µg/mL.

Q: What about the EC50, inhibition of FcRn mediated IgG recycling (culture media), MDCK II clone 15 cells, biotinylated human IgG, MSD detection of the same substance?
A: The EC50, inhibition of FcRn mediated IgG recycling (culture media), MDCK II clone 15 cells, biotinylated human IgG, MSD detection was 0.33 µg/mL.

Q: For “human IgG1 Fc-multimer IgM tp L309C (from UniProt P0DOX5 228-449) (Fc fusion)”, which EC50, inhibition of FcRn mediated IgG recycling (cell lysates), MDCK II clone 15 cells, biotinylated human IgG, MSD detection is on record?
A: The EC50, inhibition of FcRn mediated IgG recycling (cell lysates), MDCK II clone 15 cells, biotinylated human IgG, MSD detection was 7.28 µg/mL.
